Literature values as cited in paper PMC5672155.
Blank lines part the entries; values can stand above or below the substance they belong to.

Tests used:
[1] = biological target: LC3 (Homo sapiens) (UniProt Q9GZQ8)
[2] = biological target: Sec62 (Homo sapiens) (UniProt Q99442)
[3] = biological target: Sec63 (Homo sapiens) (UniProt Q9UGP8)
[4] = biological target: Sec61α (Homo sapiens) (UniProt P61619)

UniProt Q99442, sequence (Q99442 whole entry): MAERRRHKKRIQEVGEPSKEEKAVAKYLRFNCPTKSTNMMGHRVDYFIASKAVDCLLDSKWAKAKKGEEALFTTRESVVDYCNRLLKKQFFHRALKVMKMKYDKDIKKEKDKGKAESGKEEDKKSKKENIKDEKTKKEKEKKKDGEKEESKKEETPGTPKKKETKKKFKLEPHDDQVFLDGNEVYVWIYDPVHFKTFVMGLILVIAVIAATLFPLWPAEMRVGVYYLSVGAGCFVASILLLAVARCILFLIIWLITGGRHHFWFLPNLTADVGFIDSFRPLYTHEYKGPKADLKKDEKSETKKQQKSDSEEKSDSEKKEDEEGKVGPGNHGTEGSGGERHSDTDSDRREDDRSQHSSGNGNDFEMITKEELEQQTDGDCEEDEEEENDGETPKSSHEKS

- Kd [1]: 20 µM
Substance: Sec62 (from UniProt Q99442)

- Kd [2]: 0.005 µM
Substance: Sec63 (from UniProt Q9UGP8)

- Kd [3]: 5 µM
- Kd [4]: 500 µM
Substance: BiP (from UniProt P11021)
